Reference: patent US20250059285A1 (ARGENX, published 2025)
Positions count from the first letter of the chain named.

What was measured:
human Gal10-His [1] = molecular target: T1, human Gal10-His (human, UniProt Q05315 2-142, limits assumed); test: SPR Biacore 3000, Fab periplasmic extract on Gal10-His-coated CM5
T1 construct: also called hGal10-His; human Gal10-His tagged; not shown: His tag
T1 sequence: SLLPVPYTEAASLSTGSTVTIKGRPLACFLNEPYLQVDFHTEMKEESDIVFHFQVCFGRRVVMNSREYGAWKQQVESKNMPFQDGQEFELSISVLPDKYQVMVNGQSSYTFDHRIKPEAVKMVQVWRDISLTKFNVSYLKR
Procedure: The binding properties of the Fabs (periplasmic extract) to human Gal10-His were analyzed by SPR with a Biacore 3000 instrument. For this purpose, the diluted periplasmic extract was applied on a CM5 chip coated with human Gal10-His. As a positive control, a 20 nM injection of the purified g7B07 clone in the human Fab backbone was included at the beginning and end of the run.
The binding capacity of the Fab periplasmic extract was analyzed by SPR technology using a Biacore 3000. Briefly, diluted periplasmic extracts were injected on CM5 chip coated with 2500 RU of Gal10-His. The amplitude of the binding (Rmax), the dissociation (off-rate) of each clone, as well as the off-rate fold change compared to the controls (g7B07 and g7B07_N53A) are indicated. Clones g20H09 and g23H09 had similar or better off rate compared to the control g7B07 (Table 10). The randomized part of the CDR2 sequence is underlined (Table 10).

human Gal10-His [2] = molecular target: T1, human Gal10-His; test: SPR Biacore 3000, hFab on human Gal10-His captured by anti-His CM5
Procedure: (§1) The binding properties of the selected clones to human and cynomolgus Gal10 was analyzed via a capture method established on a Biacore 3000 instrument.
(§2) For this purpose, two approaches were used. In the first, two concentrations of the selected clones were applied on cynomolgus (WGS isoform) Gal10-His capture on a CM5 chip coated with a monoclonal anti-His antibody. The second approach involved a serial dilution that was applied on human or cynomolgus (WGS isoform) Gal10-His in the same set-up.

human Gal10-His [3] = molecular target: T1, human Gal10-His; test: SPR Biacore 3000, purified hFab on captured Gal10-His
Procedure: (§3) The binding properties of the selected Fab clones to human Gal10 were analyzed via a capture method established on a Biacore 3000 instrument. Two concentrations of the selected Fab clones were tested on human Gal10-His immobilized on a CM5 chip coated with a monoclonal anti-His. As controls, the clone g7B07 and g7B07_N53A were injected at the beginning and the end of the run. Briefly, a CM5 chip was coated with a monoclonal anti-His antibody (4000 RU), then a fixed concentration of the human Gal10-His (25 μg/mL) was captured on the anti-His chip before receiving two concentrations of the clones in the human Fab backbone.

human Gal10-His [4] = molecular target: T1, human Gal10-His; test: SPR Biacore 3000, hFab on captured human Gal10-His; column head prints (M), the text gives nM
Procedure: as §1, §2

human Gal10-His [5] = molecular target: T1, human Gal10-His; test: SPR slope against calibrators on captured Gal10-His; T0 sample
Procedure: (§4) The binding properties of the seven selected clones following two weeks of temperature stress was analysed using an optimized capture method on a Biacore 3000 instrument. The binding properties of the stressed samples were determined, compared to the calibration point, and expressed as a percentage of Relative Activity (% RA).
(§5) Briefly, a capture method was set-up on a Biacore 3000 instrument. For this purpose, a CM5 chip was coated with a monoclonal anti-His antibody (4000 RU), then a fixed concentration of the human Gal10-His (25 μg/mL) was captured on the anti-His chip before receiving duplicate injections of the calibrators, QC samples and temperature stressed samples of each clone. The slope of each injected sample was then calculated using the BIA evaluation software. Concentrations of the QC samples and temperature stressed samples were back-calculated by interpolating the obtained slopes of these samples to the calibrator curve. Obtained values were within +/−20% of the nominal concentration of the tested samples and are expressed as average relative accuracy (avg % RA) (Table 13).

[6] = molecular target: T2, cynomolgus Gal10-His (WGS isoform) (cynomolgus); test: SPR Biacore 3000, hFab on cynomolgus Gal10-His (WGS) captured by anti-His CM5
T2 construct: also called cynomolgus antigen
Procedure: as §1, §2

[7] = molecular target: T2, cynomolgus Gal10-His (WGS isoform); test: SPR Biacore 3000, hFab on captured cynomolgus Gal10-His (WGS); column head prints (M), the text gives nM
Procedure: as §1, §2

human Gal10-His [8] = molecular target: T1, human Gal10-His; test: SPR slope against calibrators on captured Gal10-His; sample 2 weeks at 37 C
Procedure: as §4, §5

human Gal10-His [9] = molecular target: T1, human Gal10-His; test: SPR Biacore 3000, purified hFab (2 conc.) on Gal10-His captured by anti-His CM5
Procedure: as §3

human Gal10-His [10] = molecular target: T1, human Gal10-His; test: competition ELISA on coated Gal10-His; hFab 20 ug/mL, competitor g7B07-hFab-Biot, streptavidin-HRP
Procedure: An epitope binning analysis of the humanized Fab clones was carried out in comparison with the humanized Fab of g7B07.
For this experiment, a sub-optimal concentration of the biotinylated clone g7B07-humanized Fab was added to the Gal10 coated plate and pre-incubated with the selected clones. The percentage competition with g7B07 was then determined (Table 17). Motavizumab (Mota) in a human Fab backbone was used as a negative control (0% competition). Clone g7B07 was used as the positive control for competition and was therefore set as the 100% competition value. The anti-human specific clone 1D11 (binding to Tyrosine 69 residue) was included in the tested panel as a negative control for competition with 7B07 for Gal10 binding because it was known that clone 1D11 binds to the opposite side of Gal10 (including Tyrosine 69).

human Gal10-His [11] = molecular target: T1, human Gal10-His; test: SPR, overview table of lead Fab candidates
human Gal10-His [12] = molecular target: T1, human Gal10-His; test: SPR against T0 reference; sample 4 weeks at 37 C
Procedure: (§6) The functional active concentration of the candidates was then assessed by SPR on a Biacore 3000 instrument (FIG. 4). All samples were evaluated with methods meeting the standard qualification criteria. Aliquots were tested at predefined test concentrations against titration curves from reference samples (T0, −80° C. storage) and in the presence of quality control (QC) samples covering a range of 70-130% relative activity (% RA) towards the reference material.
(§7) comparison/reference ⁽¹⁾ samples correspond to aliquots kept at +37° C. for 4 weeks ⁽²⁾ samples correspond to aliquots kept at +5° C. for 4 weeks prior to nebulization. In brief, samples were nebulized with an Aerogen Solo active vibrating mesh nebulizer that converted a drug solution into an inhalable aerosol. Three different devices for each time-point were used per clone and results are reported by the device (nebulizer) serial number. In case of device fouling, indicated by longer nebulization times […]

human Gal10-His [13] = molecular target: T1, human Gal10-His; test: SPR against T0 reference; sample 4 weeks at 5 C, then nebulized
Procedure: as §6, §7

[14] = molecular target: T3, recombinant human Charcot-Leyden crystals (crystalline galectin-10) (human, UniProt Q05315 2-142, limits assumed); test: cell-based or functional assay
T3 sequence: T1 sequence

B1: g20B05 (Fab, periplasmic extract) (Fab, V domains shown)
VH: EVQLLESGGGLVQPGGSLRLSCAASGFTFRSYDMSWVRQAPGKGLEWVSAIKPVGITYYADSVKGRFTISRDNSKNTLYLQMNSLRAEDTAVYYCATTHGIGTLGFGSWGQGTLVTVSS
VL: SYELTQPLSVSVALGQTARITCDGNNIGSKSAQWYQQKPGQAPVLVIYADEYRPEGIPERFSGSNSGNTATLTISRAQAGDEADYYCQVWDGSAAVFGGGTQLTVL
notes: X3 library; VH assembled by inference
- Fold off-rate compared to g7B07 (human Gal10-His [1]): 3.3 fold
- koff (human Gal10-His [1]): 0.023 s⁻¹

B2: g24F02 (human Fab) (Fab, V domains shown)
VH: EVQLLESGGGLVQPGGSLRLSCAASGFTFSSYAMSWVRQAPGKGLEWVSAINNGGGSTSYADSVKGRFTISRDNSKNTLYLQMNSLRAEDTAVYYCAKGLRVGVLGFDYWGQGTLVTVSS
VL: B1 VL
notes: Human Fab backbone (human CH1, human lambda CL); also called germlined 24F02
- Amplitude R0 (human Gal10-His [2]): 644 RU
- koff (human Gal10-His [2]): 0.0016 s⁻¹
- kon (human Gal10-His [2]): 1.1e+06 M⁻¹ s⁻¹
- fold better affinity than g7B07 (human Gal10-His [3]): 4.7 fold
- Kd (human Gal10-His [4]): 1.49 nM
- % Relative Activity (RA) on Biacore (human Gal10-His [5]): 101%
- Amplitude R0 [6]: 566 RU
- koff [6]: 0.0078 s⁻¹
- kon [6]: 1.4e+06 M⁻¹ s⁻¹
- Kd [7]: 5.4 nM
- % Relative Activity (RA) on Biacore (human Gal10-His [8]): 175%
- Kd (human Gal10-His [9]): 2 nM
- kd-fold drop vs g7B07 (human Gal10-His [9]): 2.8 fold
- koff (human Gal10-His [9]): 0.0016 s⁻¹
- kon (human Gal10-His [9]): 830000 M⁻¹ s⁻¹
- % Competition against g7B07-Biot (human Gal10-His [10]): 96.5%
- Mean OD value (human Gal10-His [10]): 0.26 OD

B3: g21F11 (Fab, periplasmic extract) (Fab, V domains shown)
VH: EVQLLESGGGLVQPGGSLRLSCAASGFTFRSYDMSWVRQAPGKGLEWVSAIHTPMTYYADSVKGRFTISRDNSKNTLYLQMNSLRAEDTAVYYCATTHGIGTLGFGSWGQGTLVTVSS
VL: B1 VL
notes: X4 library; VH assembled by inference
- Fold off-rate compared to g7B07 (human Gal10-His [1]): 5.1 fold
- koff (human Gal10-His [1]): 0.035 s⁻¹

B4: g22C03 (Fab, periplasmic extract) (Fab, V domains shown)
VH: B1 VH with P53L, V54G, G55T, I56F
VL: B1 VL
notes: X5 library; VH assembled by inference
- Fold off-rate compared to g7B07 (human Gal10-His [1]): 2.9 fold
- koff (human Gal10-His [1]): 0.02 s⁻¹

B5: g23H11 (Fab, periplasmic extract) (Fab, V domains shown)
VH: EVQLLESGGGLVQPGGSLRLSCAASGFTFRSYDMSWVRQAPGKGLEWVSAISKMPHLTYYADSVKGRFTISRDNSKNTLYLQMNSLRAEDTAVYYCATTHGIGTLGFGSWGQGTLVTVSS
VL: B1 VL
notes: X6 library; VH assembled by inference
- Fold off-rate compared to g7B07 (human Gal10-His [1]): 3.6 fold
- koff (human Gal10-His [1]): 0.025 s⁻¹

B6: g21C06 (Fab, periplasmic extract) (Fab, V domains shown)
VH: B3 VH with H52K, T53R, M55W
VL: B1 VL
notes: as for B3
- Fold off-rate compared to g7B07 (human Gal10-His [1]): 5.2 fold
- koff (human Gal10-His [1]): 0.036 s⁻¹

B7: g23G11 (Fab, periplasmic extract) (Fab, V domains shown)
VH: B5 VH with S52Q, M54T, P55I, H56V, L57P
VL: B1 VL
notes: as for B5
- Fold off-rate compared to g7B07 (human Gal10-His [1]): 2.6 fold
- koff (human Gal10-His [1]): 0.018 s⁻¹

B8: g21B01 (Fab, periplasmic extract) (Fab, V domains shown)
VH: B3 VH with H52S, T53G, P54A, M55L
VL: B1 VL
notes: as for B3
- Fold off-rate compared to g7B07 (human Gal10-His [1]): 3.8 fold
- koff (human Gal10-His [1]): 0.026 s⁻¹

B9: g20F04 (Fab, periplasmic extract) (Fab, V domains shown)
VH: B1 VH with P53H, V54Q, G55V
VL: B1 VL
notes: X3 library
- Fold off-rate compared to g7B07 (human Gal10-His [1]): 2.3 fold
- koff (human Gal10-His [1]): 0.016 s⁻¹

B10: g7B07_N53A (human Fab) (Fab, V domains shown)
VH: B5 VH with S52K, K53A, M54G, P55G, H56G, L57I
VL: B1 VL
notes: VH assembled by inference as for g7B07; Human Fab backbone; also called g7B07_N53A (mean)
- Amplitude R0 (human Gal10-His [2]): 119 RU
- koff (human Gal10-His [2]): 0.079 s⁻¹
- kon (human Gal10-His [2]): 540000 M⁻¹ s⁻¹
- Kd (human Gal10-His [4]): 145 nM
- Kd (human Gal10-His [11]): 145 nM
- koff (human Gal10-His [11]): 0.079 s⁻¹
- Amplitude R0 [6]: 30 RU
- koff [6]: 0.21 s⁻¹
- kon [6]: 510000 M⁻¹ s⁻¹
- Kd [7]: 417 nM
- % relative activity by SPR (human Gal10-His [12]): 95%
- % relative activity by SPR (human Gal10-His [13]): 94%
- Kd (human Gal10-His [9]): 144 nM
- kd-fold drop vs g7B07 (human Gal10-His [9]): 0.06 fold
- koff (human Gal10-His [9]): 0.078 s⁻¹
- kon (human Gal10-His [9]): 640000 M⁻¹ s⁻¹
- crystal dissolution % Relative Activity towards the reference T0 after 2 h, nebulized [14]: 53%
- crystal dissolution % Relative Activity towards the reference T0 after 2 h, stressed [14]: 82%
- recGal10 crystal dissolution EC50 (T2 h), Assay 1, nebulized [14]: 584 µg/mL
- recGal10 crystal dissolution EC50 (T2 h), Assay 1, stressed (4 W at 37 C) [14]: 379 µg/mL
- recGal10 crystal dissolution EC50 (T2 h), Assay 1, unstressed (T0) [14]: 309 µg/mL

B11: g23E05 (Fab, periplasmic extract) (Fab, V domains shown)
VH: B5 VH with S52R, K53T, M54F, P55E, L57H
VL: B1 VL
notes: as for B5
- Fold off-rate compared to g7B07 (human Gal10-His [1]): 1.8 fold
- koff (human Gal10-His [1]): 0.013 s⁻¹
